Here are results for one molecule from publication PMC11573620 (Molecular Therapy, 2024).

The target of this test is T1, human CD155 extracellular domain fused to mouse Fc (human, UniProt P15151 21-343).
T1 sequence (looked up): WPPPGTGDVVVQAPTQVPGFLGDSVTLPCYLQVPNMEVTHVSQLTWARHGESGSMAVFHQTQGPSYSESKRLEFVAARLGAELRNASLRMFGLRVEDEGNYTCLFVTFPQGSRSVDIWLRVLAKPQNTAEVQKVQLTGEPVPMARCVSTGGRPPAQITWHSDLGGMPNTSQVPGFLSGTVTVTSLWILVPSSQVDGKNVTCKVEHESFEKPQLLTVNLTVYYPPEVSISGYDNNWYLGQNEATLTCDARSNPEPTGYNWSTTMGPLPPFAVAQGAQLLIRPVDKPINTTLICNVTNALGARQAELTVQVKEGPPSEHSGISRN
Description: ELISA. (In general: In an ELISA, binding on a coated surface is turned into a signal by an enzyme label.)

B1: human TIGIT extracellular domain, biotinylated (domain or fragment, UniProt Q495A1 22-141, looked up)
chain: MMTGTIETTGNISAEKGGSIILQCHLSSTTAQVTQVNWEQQDQLLAICNADLGWHISPSFKDRVAPGPGLGLTLQSLTVNDTGEYFCIYHTYPDGTYTGRIFLEVLESSVAEHGARFQIP
modifications: biotin
Take B1: the binding result was “binds”.
